Test results: patent publication US10772928B2, “Modulation and detection of a neuronal alternative splicing regulatory network for treatment and diagnosis of neurological disorders” (The Governing Council of the University of Toronto, priority 2014, dated 2020)

T1: nSR100 (Mus musculus, UniProt Q8BKA3)
T1 construct: host or cells: mouse N2A cells
T1 sequence (Q8BKA3 1-608): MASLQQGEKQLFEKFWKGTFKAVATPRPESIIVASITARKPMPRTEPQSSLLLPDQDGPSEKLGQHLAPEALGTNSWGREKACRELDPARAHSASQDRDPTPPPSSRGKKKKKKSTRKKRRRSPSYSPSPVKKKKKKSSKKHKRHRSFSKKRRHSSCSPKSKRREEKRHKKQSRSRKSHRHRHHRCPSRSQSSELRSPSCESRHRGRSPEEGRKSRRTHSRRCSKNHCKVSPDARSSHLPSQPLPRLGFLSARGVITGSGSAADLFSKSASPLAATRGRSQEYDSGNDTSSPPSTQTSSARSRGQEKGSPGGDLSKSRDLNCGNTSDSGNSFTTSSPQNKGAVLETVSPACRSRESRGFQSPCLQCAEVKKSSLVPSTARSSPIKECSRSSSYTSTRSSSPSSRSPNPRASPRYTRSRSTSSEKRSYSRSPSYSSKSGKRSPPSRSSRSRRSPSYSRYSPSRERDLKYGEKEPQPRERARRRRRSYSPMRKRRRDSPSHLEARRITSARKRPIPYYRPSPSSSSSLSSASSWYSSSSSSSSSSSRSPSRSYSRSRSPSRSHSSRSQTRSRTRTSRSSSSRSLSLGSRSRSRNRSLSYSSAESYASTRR

B1: Tpi1 (protein, UniProt P17751 2-249, looked up)
Triosephosphate isomerase: APTRKFFVGGNWKMNGRKKCLGELICTLNAANVPAGTEVVCAPPTAYIDFARQKLDPKIAVAAQNCYKVTNGAFTGEISPGMIKDLGATWVVLGHSERRHVFGESDELIGQKVSHALAEGLGVIACIGEKLDEREAGITEKVVFEQTKVIADNVKDWSKVVLAYEPVWAIGTGKTATPQQAQEVHEKLRGWLKSNVNDGVAQSTRIIYGGSVTGATCKELASQPDVDGFLVGGASLKPEFVDIINAKQ
B2: Cyfip1 (protein, UniProt Q7TMB8 1-1253, looked up)
Cytoplasmic FMR1-interacting …: MAAQVTLEDALSNVDLLEELPLPDQQPCIEPPPSSLLYQPNFNTNFEDRNAFVTGIARYIEQATVHSSMNEMLEEGQEYAVMLYTWRSCSRAIPQVKCNEQPNRVEIYEKTVEVLEPEVTKLMNFMYFQRNAIERFCGEVRRLCHAERRKDFVSEAYLITLGKFINMFAVLDELKNMKCSVKNDHSAYKRAAQFLRKMADPQSIQESQNLSMFLANHNKITQSLQQQLEVISGYEELLADIVNLCVDYYENRMYLTPSEKHMLLKVMGFGLYLMDGSVSNIYKLDAKKRINLSKIDKYFKQLQVVPLFGDMQIELARYIKTSAHYEENKSRWTCASSSSSPQYNICEQMIQIREDHMRFISELARYSNSEVVTGSGRQEAQKTDAEYRKLFDLALQGLQLLSQWSAHVMEVYSWKLVHPTDKYSNKDCPDNAEEYERATRYNYTTEEKFALVEVIAMIKGLQVLMGRMESVFNHAIRHTVYAALQDFSQVTLREPLRQAIKKKKNVIQSVLQAIRKTVCDWETGHEPFNDPALRGEKDPKSGFDIKVPRRAVGPSSTQLYMVRTMLESLIADKSGSKKTLRSSLEGPTILDIEKFHRESFFYTHLINFSETLQQCCDLSQLWFREFFLELTMGRRIQFPIEMSMPWILTDHILETKEASMMEYVLYSLDLYNDSAHYALTKFNKQFLYDEIEAEVNLCFDQFVYKLADQIFAYYKVMAGSLLLDKRLRSECKNQGATIHLPPSNRYETLLKQRHVQLLGRSIDLNRLITQRVSAAMYKSLELAIGRFESEDLTSVVELDGLLEINRMTHKLLSRYLTLDSFDAMFREANHNVSAPYGRITLHVFWELNYDFLPNYCYNGSTNRFVRTVLPFSQEFQRDKQPNAQPQYLHGSKALNLAYSSIYGSYRNFVGPPHFQVICRLLGYQGIAVVMEELLKVVKSLLQGTILQYVKTLMEVMPKICRLPRHEYGSPGILEFFHHQLKDIVEYAELKTVCFQNLREVGNAVLFCLLIEQSLSLEEVCDLLHAAPFQNILPRIHVKEGERVDAKMKRLESKYAPLHLVPLIERLGTPQQIAIAREGDLLTKERLCCGLSMFEVILTRIRTFLDDPIWRGPLPSNGVMHVDECVEFHRLWSAMQFVYCIPVGTHEFTVEQCFGDGLHWAGCMIIVLLGQQRRFAVLDFCYHLLKVQKHDGKDEIIKNVPLKKMVERIRKFQILNDEIITILDKYLKSGDGESTPVEHVRCFQPPIHQSLASS

Target: T1, nSR100
Test: AP-MS nSR100 interaction partners from mouse N2A cells (Table 5)
Assay type: binding
Conditions: for AvgP (average of the SAINT scores) / MaxP (maximal SAINT score): bait Srrm4; for FoldChange between the prey Avg spectra of the bait and control purifications: bait Srrm4, 0.1 added to prevent division by 0; for AvgSpec (average number of spectra per replicate): bait Srrm4, 2 replicates; for Spectra (number of spectra for the prey in the purification of the bait): AP-MS; for SpecSum: bait Srrm4, sum of spectra over 2 replicates
[1] = bait Srrm4, biological replicate 1 (first number of the cell)
[2] = bait Srrm4, biological replicate 2 (second number of the cell)

Text: By applying affinity purification coupled to mass-spectrometry (AP-MS), several interaction nSR100 partner proteins were detected that provide insight into mechanisms of post-translational regulation of nSR100 levels.

Molecule	AvgP (average of the SAINT scores)	MaxP (maximal SAINT score)	FoldChange between the prey Avg spectra of the bait and control purifications	AvgSpec (average number of spectra per replicate)	Spectra (number of spectra for the prey in the purification of the bait) [1]	Spectra (number of spectra for the prey in the purification of the bait) [2]	SpecSum
B1	0.87	0.87	3.33	10	10|10	10|10	20
B2	0.89	1	5.5	11	7	15	22
